In US20030215450A1 (published 2003):

T1: murine RANK-L (murine, UniProt O35235 158-316, limits assumed)
T1 sequence (looked up): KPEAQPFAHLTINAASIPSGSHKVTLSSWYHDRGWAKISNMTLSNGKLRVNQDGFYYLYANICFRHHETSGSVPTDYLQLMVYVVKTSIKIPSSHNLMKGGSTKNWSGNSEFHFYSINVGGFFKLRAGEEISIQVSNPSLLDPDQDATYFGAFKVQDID

T2: soluble human RANKL protein (human, UniProt O14788 140-317, limits assumed, biotinylated with NHS-biotin at a 20:1 molar ratio of NHS-biotin to protein (competition ELISA only))
T2 sequence (looked up): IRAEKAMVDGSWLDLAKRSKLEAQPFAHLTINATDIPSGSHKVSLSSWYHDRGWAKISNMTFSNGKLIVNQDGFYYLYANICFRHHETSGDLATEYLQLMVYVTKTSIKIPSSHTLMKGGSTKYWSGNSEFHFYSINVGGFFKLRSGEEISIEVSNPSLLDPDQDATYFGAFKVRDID


Experiments:
murine RANK-L = target: T1, murine RANK-L; assay: not described
[1] = target: T2, soluble human RANKL protein; assay: cell-based or functional assay
[2] = target: T2, soluble human RANKL protein; assay: competition ELISA: biotinylated shRANKL (0.43 nM) binding to coated RANK-Fc, competitor in solution
Text: A. A competition ELISA was established using a human RANK-Fc fusion protein coated on plastic and a biotinylated soluble human RANKL protein for detection in solution. The RANK-Fc and RANKL proteins were produced in CHO cells and Pichia pastoris, respectively, and purified to >90% homogeneity. The shRANKL (soluble, human RANKL) protein was biotinylated at a 20:1 molar ratio of NHS-biotin to protein (Pierce, Rockford, Ill.) according to the manufacturer's specifications. 96-well ELISA plates were coated overnight at 4° C. with 50 ng/well […] RANK-Fc in pH 9.6 carbonate-bicarbonate buffer. Plates were washed in pH 7.4 Tris-Saline buffer containing 0.1% Tween 20 and blocked for 2 h at RT in 1% BSA/PBS. Competitor proteins (RANK-Fc; death receptor 5 (DR5)-Fc; OPG-Fc; RANKL mAb 2A4) were diluted in 0.01% Tween 20/PBS and added to wells prior to the addition of biotinylated shRANKL (0.43 nM) and the combined samples were incubated for 2 hrs at room temperature. The amount of biotinylated shRANKL bound to coated RANK-Fc (±competitor) was measured using alkaline phosphatase conjugated streptavidin. The substrate for signal detection was 105 PNPP (Pierce Inc., Rockford, Ill.) and absorbance measured at 405 nm using a Spectra Max 340 plate reader.

[3] = target: T2, soluble human RANKL protein; assay: not described with the number; paragraph 33 defines high affinity as determined by optical biosensor analysis

Row | binding result (murine RANK-L) | IC50 [2] | Kd [3] | Binder | IC50, formation of multinuclear cells, human monocyte osteoclastogenesis with 50 ng/ml human soluble RANKL plus M-CSF [1]
1 | no binding | ~2 nM | ~0.1 nM | mouse monoclonal antibody 2A4 (antibody, mouse IgG2a, V domains shown, the latter are followed; also called mAb 2A4; 2A4 Mab) VH: EVQLVESGGDLVKPGGSLKLSCAASGFTFSRYGMSWVRQTPDKRLEWVATISSGGSYIYYPDSVKGRFTISRDNAKNTLYLQMSSLKSEDTAMYYCARLDGYNYRWYFDVWGTGTTVTVSS VL: DIVMTQSHKFMSTSVGDRVSITCKASQDVSTAVAWYQQKPGQSPKLLIYSASYRYTGVPDRFTGSGSGTDFTFTISSVQAEDLAVYYCQQHYSSPRTFGGGTNLEIK | ~4 µg/mL
2 | – | ~0.5 nM | – | OPG-Fc (Fc fusion, UniProt O00300 22-194, looked up, Construct not described; also called osteoprotegerin-Fc; not shown: Fc part; not described) ETFPPKYLHYDEETSHQLLCDKCPPGTYLKQHCTAKWKTVCAPCPDHYYTDSWHTSDECLYCSPVCKELQYVKQECNRTHNRVCECKEGRYLEIEFCLKHRSCPPGFGVVQAGTPERNTVCKRCPDGFFSNETSSKAPCRKHTNCSVFGLLLTQKGNATHDNICSGNSESTQK | –
3 | – | ~6 nM | – | human RANK-Fc fusion protein (Fc fusion, UniProt Q9Y6Q6 30-212, looked up, Produced in CHO cells; not shown: Fc part) IAPPCTSEKHYEHLGRCCNKCEPGKYMSSKCTTTSDSVCLPCGPDEYLDSWNEEDKCLLHKVCDTGKALVAVVAGNSTTPRRCACTAGYHWSQDCECCRRNTECAPGLGAQHPLQLNKDTVCKPCLAGYFSDAFSSTDKCRPWTNCTFLGKRVEHHGTEKSDAVCSSSLPARKPPNEPHVYLP | ~0.5 µg/mL
